The results in this text go back to US20220380463A1 (Adimab, published 2022).

In assay [1] the target is T1, human CD3 on CD3+ Jurkat cells (human, UniProt P07766 23-207).
T1 construct: whole, on cells; Native CD3 complex on cells; the other CD3 chains are not specified for this assay; also called Human CD3+ Jurkat
In words: flow cytometry on CD3+ Jurkat cells, ratio of MFI at pH 6.0 to pH 7.4. Here is the method:
(§1) Specificity of the anti-CD3 antibodies for human CD3+ Jurkat cells compared to CHO-S cells at pH 6.0 and 7.4 was determined using a FACS cell binding assay. Briefly, CD3+ human Jurkat cells and CHO-S cells were thawed and washed with cold PBSF buffer, pH 7.4 (PBS+0.1% BSA, pH 7.4). About 200,000 cells were aliquoted per well of a 96-well plate and pelleted by centrifugation (5 minutes at 500×g). The cells were washed with either PBSF pH 7.4 or PBSF pH 6.0 (PBS+0.1% BSA, pH 6.0), and then resuspended in 100 ul in either PBSF pH 7.4 or PBSF pH 6.0 with IgG antibody produced in yeast (100 nM). The mixture (cells+antibody) was incubated for 20 minutes on ice, then washed twice with either PBSF pH 7.4 or PBSF pH 6.0. Cells were resuspended in 50 ul of propidium iodide (1:500 dilution) and anti-human IgG-RPE (1:100 dilution) prepared in either PBSF pH 7.4 or PBSF pH 6.0, then incubated for 20 minutes on ice in the dark before cells were washed twice with either PBSF pH 7.4 or PBSF pH 6.0. Binding was analyzed on FACS Canto II.
(§2) Cell binding assays. CD3+ human Jurkat cells (ATCC) and CHO-S cells (Invitrogen/ThermoFisher) were thawed and washed with cold PBSF buffer, pH 7.4 (PBS+0.1% BSA, pH 7.4). About 200,000 cells were aliquoted per well of a 96-well plate (FACS Assay Plate VWR BD 353263) and pelleted by centrifugation (5 minutes at 500×g). The cells were washed with either PBSF pH 7.4 or PBSF pH 6.0 (PBS+0.1% BSA, pH 6.0), and then resuspended in 100 ul in either PBSF pH 7.4 or PBSF pH 6.0 with IgG antibody (100 nM) produced in yeast as described above. The mixture (cells+antibody) was incubated for 20 minutes on ice, then washed twice with either PBSF pH 7.4 or PBSF pH 6.0. Cells were resuspended in 50 ul of propidium iodide (Roche; 1:500 dilution) and anti-human IgG-RPE (Southern Biotech; 1:100 dilution) prepared in either PBSF pH 7.4 or PBSF pH 6.0, then incubated for 20 minutes on ice in the dark before cells were washed twice with either PBSF pH 7.4 or PBSF pH 6.0. Binding was analyzed on FACS Canto II.

Assay [2] addresses T1, human CD3 on CD3+ Jurkat cells. Briefly: flow cytometry, 100 nM IgG on CD3+ Jurkat cells, pH 7.4. Here is the method: as §1, §2
A general note: Flow cytometry measures light scatter and fluorescence of single cells or particles in a stream.

Assay [3] has the same target. Briefly: flow cytometry, 100 nM IgG on CD3+ Jurkat cells, pH 6.0. The method, then: as §1, §2

T1 sequence (P07766 23-207): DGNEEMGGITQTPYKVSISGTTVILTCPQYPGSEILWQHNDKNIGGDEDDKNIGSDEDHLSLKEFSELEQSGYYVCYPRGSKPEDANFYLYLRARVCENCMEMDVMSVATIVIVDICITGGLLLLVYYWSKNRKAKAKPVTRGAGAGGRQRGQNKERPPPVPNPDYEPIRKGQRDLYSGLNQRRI

B1: SAD10318_P01_G01 (ADI-48579) (antibody, V domains shown)
VH: QVQLVQSGAEVKKPGASVKVSCKASGFNIKDYYMHWVRQAPGQRLEWMGWIDLENANTIYDAKFQGRVTITRDTSASTAYMELSSLRSEDTAVYYCARDAHGHYFYDVWGQGTLVTVSS
VL: DIVMTQSPDSLAVSLGERATINCKSSQSLLHAHTGKNYLAWYQQKPGQPPKLLIYWASTRESGVPDRFSGSGSGTDFTLTISSLQAEDVAVYYCKQSHSHRTFGGGTKVEIK
notes: IgG; also called Ab215
Consider B1, for which the “MFI pH 6.0/MFI pH 7.4” value in assay [1] was 6.8. For the same molecule, in assay [2], the “MFI pH 7.4” value came out at 306 MFI. Further, the “MFI pH 6.0” value in assay [3] was found to be 2070 MFI.

B2: SAD10318_P01_H01 (ADI-48580) (antibody, V domains shown)
VH: QVQLVQSGAEVKKPGASVKVSCKASGFNIKDYYMHWVRQAPGQRLEWMGWIDLENANTIYDAKFQGRVTITRDTSASTAYMELSSLRSEDTAVYYCARDAHHRYFYDVWGQGTLVTVSS
VL: DIVMTQSPDSLAVSLGERATINCKSSQSLLNAHTGKNHLAWYQQKPGQPPKLLIYWASTRESGVPDRFSGSGSGTDFTLTISSLQAEDVAVYYCKQSYHHRTFGGGTKVEIK
notes: IgG; also called Ab226
In the case of B2, the “MFI pH 6.0/MFI pH 7.4” value in assay [1] was found to be 22.5. Further, the “MFI pH 7.4” value in assay [2] worked out at 41 MFI. Besides, the “MFI pH 6.0” value in assay [3] was 933 MFI.

B3: SAD10318_P02_B05 (ADI-48596) (antibody, V domains shown)
VH: QVQLVQSGAEVKKPGASVKVSCKASGFNIKDYYMHWVRQAPGQRLEWMGWIDLENANTIYDAKFQGRVTITRDTSASTAYMELSSLRSEDTAVYYCARDAYGRHFYDHWGQGTLVTVSS
VL: DIVMTQSPDSLAVSLGERATINCKSSQSLLNAHTGKNYLAWYQQKPGQPPKLLIYWASTRESGVPDRFSGSGSGTDFTLTISSLQAEDVAVYYCKQSYSRRTFGGGTKVEIK
notes: IgG; also called Ab179
Turning to B3, in assay [1], the “MFI pH 6.0/MFI pH 7.4” value is 0.6. Further, the “MFI pH 7.4” value in assay [2] came to 828 MFI. For the same molecule, the “MFI pH 6.0” value in assay [3] worked out at 500 MFI.

B4: SAD10318_P02_H04 (ADI-48594) (antibody, V domains shown)
VH: QVQLVQSGAEVKKPGASVKVSCKASGFNIKDYYMHWVRQAPGQRLEWMGWIDLENANTIYDAKFQGRVTITRDTSASTAYMELSSLRSEDTAVYYCARDAYHRYFYDHWGQGTLVTVSS
VL: DIVMTQSPDSLAVSLGERATINCKSSQSLLHARTGHNYLAWYQQKPGQPPKLLIYWASTRESGVPDRFSGSGSGTDFTLTISSLQAEDVAVYYCKQSYSRRTFGGGTKVEIK
notes: IgG; also called Ab169
On to B4, for which the “MFI pH 6.0/MFI pH 7.4” value in assay [1] was determined as 3.2. Further, in assay [2], the “MFI pH 7.4” value came out at 1320 MFI. In assay [3], the “MFI pH 6.0” value is 4260 MFI.

B5: SAD10318_P02_A05 (ADI-48595) (antibody, V domains shown)
VH: QVQLVQSGTEVKKPGASVKVSCKASGFNIKDYYMHWVRQAPGQRLEWMGWIDLENANTIYDAKFQGRVTITRDTSASTAYMELSSLRSEDTAVYYCARDAYHRYFYDHWGQGTLVTVSS
VL: DIVMTQSPDSLAVSLGERATINCKSSQSLLNSHTGKNYLAWYQQKPGQPPKLLIYWASTRESGVPDRFSGSGSGTDFTLTISSLQAEDVAVYYCKQSYSRRTFGGGTKVEIK
notes: IgG; also called Ab178
Take B5: in assay [1], the “MFI pH 6.0/MFI pH 7.4” value is 1.2. In addition, the “MFI pH 7.4” value in assay [2] is 4960 MFI. Moreover, the “MFI pH 6.0” value in assay [3] came to 5980 MFI.

B6: SAD10318_P02_G06 (ADI-48600) (antibody, V domains shown)
VH: QVQLVQSGAEVKKPGASVKVSCKASGFNIKDYYMHWVRQAPGQRLEWMGWIDLENANTIYDAKFQGRVTITRDTSASTAYMELSSLRSEDTAVYYCAHDAYGHYFYDVWGQGTLVTVSS
VL: DIVMTQSPDSLAVSLGERATINCKSSQSLLHTRTGKNYLAWYQQKPGQPPKLLIYWASTRESGVPDRFSGSGSGTDFTLTISSLQAEDVAVYYCKQSYSRRTFGGGTKVEIK
notes: IgG; also called Ab189
Consider B6, for which the “MFI pH 6.0/MFI pH 7.4” value in assay [1] is 2.2. For the same molecule, the “MFI pH 7.4” value in assay [2] worked out at 1340 MFI. The “MFI pH 6.0” value in assay [3] amounted to 2900 MFI.

B7: SAD10318_P02_H05 (ADI-48599) (antibody, V domains shown)
VH: QVQLVQSGAEVKKPGASVKVSCKASGFNIKDYYMHWVRQAPGQRLEWMGWIDLENANTIYDAKFQGRVTITRDTSASTAYMELSSLRSEDTAVYYCARDAYGHHFYDVWGQGTLVTVSS
VL: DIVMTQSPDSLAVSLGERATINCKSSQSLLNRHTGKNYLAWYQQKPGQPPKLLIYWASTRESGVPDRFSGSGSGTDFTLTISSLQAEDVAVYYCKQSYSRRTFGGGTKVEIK
notes: IgG; also called Ab185
Consider B7, for which, in assay [1], the “MFI pH 6.0/MFI pH 7.4” value came out at 2.3. The “MFI pH 7.4” value in assay [2] stood at 583 MFI. In assay [3], the “MFI pH 6.0” value was 1320 MFI.

B8: SAD10318_P02_C04 (ADI-48592) (antibody, V domains shown)
VH: QVQLVQSGAEVKEPGASVKVSCKASGFNIKDYYMHWVRQAPGQRLEWMGWIDLENANTIYDAKFQGRVTITRDTSASTAYMELSSLRSEDTAVYYCARDAHHRYFYDVWGQGTLVTVSS
VL: DIVMTQSPDSLAVSLGERATINCKSSQSLLNAHTGHNYLAWYQQKPGQPPKLLIYWASTRESGVPDRFSGSGSGTDFTLTISSLQAEDVAVYYCKQSYSRRTFGGGTKVEIK
notes: IgG; also called Ab125
As for B8, the “MFI pH 6.0/MFI pH 7.4” value in assay [1] was determined as 1.9. In addition, in assay [2], the “MFI pH 7.4” value worked out at 2990 MFI. The “MFI pH 6.0” value in assay [3] was found to be 5810 MFI.

B9: SAD10318_P01_H03 (ADI-48591) (antibody, V domains shown)
VH: QVQLVQSGAEVKKPGASVKVSCKASGFNIKDYYMHWVRQAPGQRLEWMGWIDLENANTIYDAKFQGRVTITRDTSASTAYMELSSLRSEDTAVYYCAHDAYGHYFYDVWGQGTLVTVSS
VL: DIVMTQSPDSLAVSLGERATINCKSSQSLLNARTGHNYLAWYQQKPGQPPKLLIYWASTRESGVPDRFSGRGSGTDFTLTISSLQAEDVAVYYCKQSYHHRTFGGGTKVEIK
notes: IgG; also called Ab102
For the molecule B9, the “MFI pH 6.0/MFI pH 7.4” value in assay [1] came to 31.6. For the same molecule, the “MFI pH 7.4” value in assay [2] is 140 MFI. Moreover, the “MFI pH 6.0” value in assay [3] came out at 4430 MFI.

B10: SAD10318_P01_G03 (ADI-48590) (antibody, V domains shown)
VH: QVQLVQSGAEVKKPGASVKVSCKASGFNIKDYYMHWVRQAPGQRLEWMGWIDLENANTIYDAKFQGRVTITRDTSASTAYMELSSLRSEDTAVYYCAHDAYGHYFYDVWGQGTLVTVSS
VL: DIVMTQSPDSLAVSLGERATINCKSSQSLLNAHTGHNYLAWYQQKPGQPPKLLIYWASTRESGVPDRFSGSGSGTDFTLTISSLQAEDVAVYYCKQSYHHRTFGGGTKVEIK
notes: IgG; also called Ab91
With B10, in assay [1], the “MFI pH 6.0/MFI pH 7.4” value was determined as 60.3. Moreover, the “MFI pH 7.4” value in assay [2] turned out to be 32 MFI. Moreover, the “MFI pH 6.0” value in assay [3] is 1950 MFI.

B11: SAD10318_P02_D05 (ADI-48598) (antibody, V domains shown)
VH: QVQLVQSGAEVKKPGASVKVSCKASGFNIKDYYMHWVRQAPGQRLEWMGWIDLENANTIYDAKFQGRVTITRDTSASTAYMELSSLRSEDTAVYYCARDHYGHYFYDVWGQGTLVTVSS
VL: DIVMTQSPDSLAVSLGERATINCKSSQSLLNARTGKNHLAWYQQKPGQPPKLLIYWASTRESGVPDRFSGSGSGTDFTLTISSLQAEDVAVYYCKQSYHHRTFGGGTKVEIK
notes: IgG; also called Ab181
With B11, the “MFI pH 6.0/MFI pH 7.4” value in assay [1] is 8.6. Moreover, the “MFI pH 7.4” value in assay [2] turned out to be 33 MFI. Further, the “MFI pH 6.0” value in assay [3] amounted to 279 MFI.

B12: SAD10318_P01_G02 (ADI-48586) (antibody, V domains shown)
VH: QVQLVQSGAEVKKPGASVKVSCKASGFNIKDYYMHWVRQAPGQRLEWMGWIDLENANTIYDAKFQGRVTITRDTSASTAYMELSSLRSEDTAVYYCARDAYHHYFYDVWGQGTLVTVSS
VL: DIVMTQSPDSLAVSLGERATINCKSSQSLLNARTGKNHLAWYQQKPGQPPKLLIYWASTRESGVPDRFSGSGSGTDFTLTISSLQAEDVAVYYCKQSYSHRTFGGGTKVEIK
notes: IgG; also called Ab25
With B12, the “MFI pH 6.0/MFI pH 7.4” value in assay [1] is 24.3. The “MFI pH 7.4” value in assay [2] was determined as 45 MFI. The “MFI pH 6.0” value in assay [3] amounted to 1090 MFI.

B13: SAD10318_P02_G04 (ADI-48593) (antibody, V domains shown)
VH: QVQLVQSGAEVKKPGASVKVSCKASGFNIKDYYMHWVRQAPGQRLEWMGWIDLENANTIYDAKFQGRVTITRDTSASTAYMELSSLRSEDTAVYYCARDAYGHYHYDVWGQGTLVTVSS
VL: DIVMTQSPDSLAVSLGERATINCKSSQSLLHARTGKNYLAWYQQKPGQPPKLLIYWASTRESGVPDRFSGSGSGTDFTLTISSLQAEDVAVYYCKQSYHHRTFGGGTKVEIK
notes: IgG; also called Ab158
For B13, the “MFI pH 6.0/MFI pH 7.4” value in assay [1] is 39.4. Also, the “MFI pH 7.4” value in assay [2] came to 96 MFI. The “MFI pH 6.0” value in assay [3] worked out at 3780 MFI.
